Measured values: US12358960B2, “Selective targeting of ubiquitin- and ubiquitin-like E1-activating enzymes by structurally-stabilized peptides” (Dana-Farber Cancer Institute, Inc., priority 2019, dated 2025)
Bridge positions count the residues as written; N and C are the ends. Square brackets hold non-standard residues; d marks the D form. R8 = C=CCCCCCC[C@@](C)(N)C(=O)O; S5 = C=CCCC[C@](C)(N)C(=O)O; Nle = CCCC[C@H](N)C(=O)O

Target: T1, UBA1 (Homo sapiens, UniProt P22314)
T1 sequence (P22314 1-1058): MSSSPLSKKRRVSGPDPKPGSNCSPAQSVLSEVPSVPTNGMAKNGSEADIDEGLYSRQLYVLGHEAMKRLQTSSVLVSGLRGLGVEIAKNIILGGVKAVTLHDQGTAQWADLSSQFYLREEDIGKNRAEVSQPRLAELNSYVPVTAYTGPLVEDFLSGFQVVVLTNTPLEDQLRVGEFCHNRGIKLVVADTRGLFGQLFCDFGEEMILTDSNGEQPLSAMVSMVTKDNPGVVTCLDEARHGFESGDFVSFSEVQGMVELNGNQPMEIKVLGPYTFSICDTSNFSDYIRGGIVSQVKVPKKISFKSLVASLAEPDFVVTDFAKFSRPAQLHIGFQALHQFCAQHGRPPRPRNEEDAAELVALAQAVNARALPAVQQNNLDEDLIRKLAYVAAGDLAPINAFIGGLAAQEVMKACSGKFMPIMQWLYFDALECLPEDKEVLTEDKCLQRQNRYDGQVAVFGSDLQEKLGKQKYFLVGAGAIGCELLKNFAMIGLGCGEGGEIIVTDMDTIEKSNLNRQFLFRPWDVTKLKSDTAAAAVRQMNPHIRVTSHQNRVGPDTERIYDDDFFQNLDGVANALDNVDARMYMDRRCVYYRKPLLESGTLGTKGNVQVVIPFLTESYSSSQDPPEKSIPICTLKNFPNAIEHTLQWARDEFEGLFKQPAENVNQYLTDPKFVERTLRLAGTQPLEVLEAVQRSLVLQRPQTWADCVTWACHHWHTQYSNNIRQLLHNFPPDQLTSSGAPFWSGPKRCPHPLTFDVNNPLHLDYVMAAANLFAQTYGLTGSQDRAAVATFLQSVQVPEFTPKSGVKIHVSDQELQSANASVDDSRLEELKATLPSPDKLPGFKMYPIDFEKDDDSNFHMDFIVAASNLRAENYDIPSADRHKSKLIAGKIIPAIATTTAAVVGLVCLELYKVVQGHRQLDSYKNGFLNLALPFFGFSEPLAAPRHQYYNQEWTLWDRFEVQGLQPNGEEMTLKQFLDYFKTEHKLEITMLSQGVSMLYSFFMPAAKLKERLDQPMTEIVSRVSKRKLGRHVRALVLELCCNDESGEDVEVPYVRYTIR
Assay: Streptavidin-biotin pull-down with recombinant protein
Type: binding
Conditions: biotinylated peptide, silver stain
Procedure: Streptavidin-biotin pull-down assays: For recombinant protein pull-downs, 10 pmol recombinant human UBA1 was incubated with 5 nmol C-terminally biotinylated SAH-UBE2A or DMSO vehicle control in a total volume of 1 mL binding buffer (50 mM NaCl, 20 mM HEPES, pH 7.4, 5 mM DTT) for 1.5 hours at 4° C. 30 μL of pre-equilibrated streptavidin agarose beads were then added and incubated for an additional 1.5 hours at 4° C. The beads were pelleted by centrifugation and washed three times with NP-40 buffer (20 mM HEPES, pH 7.4, 50 mM NaCl, 5 mM DTT, 0.5% [v/v] NP-40) before eluting the protein sample from the beads by heating at 70° C. for 10 min in 3×SDS loading buffer. Samples were subjected to electrophoresis and silver staining (Pierce 24612). […] Proteins were separated by SDS-PAGE gel electrophoresis and detected by western blot against UBE1 (Abcam ab34711). […] Conjugation of ubiquitin to E2 by E1 is monitored by conversion of free E2 (17 kDa) to E2˜ubiquitin conjugate (26 kDa). Quantitation of percent inhibition was calculated from densitometry of silver stain images. Error bars represent ±1 SEM calculated from three independent experiments.

Substance: biotinylated SAH-UBE2A: C-terminally biotinylated SAH-UBE2A (Ac-[Nle]STP[R8]RRRL[Nle]R[S5]FKRLQ-biotin; staple 5-12)
- direct binding to recombinant UBA1, streptavidin capture: direct binding of biotinylated SAH-UBE2A to recombinant UBA1
